Measured values from US20250243281A1.

Columns and labels:
human insulin (human) = human insulin (human) (UniProt P01308); assay: polyspecificity ELISA, coated insulin, 100 nM antibody
BSA (bovine) = BSA (bovine) (UniProt P02769); assay: polyspecificity ELISA, BSA-blocked control wells, 100 nM antibody
FcRn = FcRn (UniProt P55899); assay: BLI Octet, biotinylated FcRn on streptavidin sensor, pH 5.0, global 1:1 fit

Chain of human insulin (human) (P01308 25-54 limits assumed, chain 1 of 2): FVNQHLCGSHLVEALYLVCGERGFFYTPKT
Chain of human insulin (human) (P01308 90-110 limits assumed, chain 2 of 2): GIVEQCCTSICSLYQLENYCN
Chain of BSA (bovine) (P02769 25-607 limits assumed): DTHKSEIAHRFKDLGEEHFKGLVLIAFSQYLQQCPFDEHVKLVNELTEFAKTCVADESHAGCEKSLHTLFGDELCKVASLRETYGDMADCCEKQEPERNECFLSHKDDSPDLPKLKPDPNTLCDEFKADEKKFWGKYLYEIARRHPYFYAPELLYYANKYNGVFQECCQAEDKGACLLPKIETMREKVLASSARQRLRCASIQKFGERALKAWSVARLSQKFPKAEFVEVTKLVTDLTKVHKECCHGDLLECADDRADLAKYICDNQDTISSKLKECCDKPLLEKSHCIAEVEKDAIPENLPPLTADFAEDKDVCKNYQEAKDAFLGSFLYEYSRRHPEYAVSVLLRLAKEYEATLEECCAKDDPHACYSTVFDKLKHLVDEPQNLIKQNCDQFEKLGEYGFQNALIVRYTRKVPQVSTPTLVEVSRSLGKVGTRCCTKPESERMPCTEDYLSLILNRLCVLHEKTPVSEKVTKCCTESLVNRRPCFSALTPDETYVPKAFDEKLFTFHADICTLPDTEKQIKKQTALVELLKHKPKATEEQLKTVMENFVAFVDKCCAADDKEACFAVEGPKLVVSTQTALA

A450 nm (human insulin (human))	Norm (signal over AdalimumAb) (human insulin (human))	A450 nm (BSA (bovine))	Kd (FcRn)	Substance
0.16	2.29 fold	0.1		Ustekinumab (antibody)
			0.13 nM	wild type human IgG1 antibody
